Measured values published in the supplement of paper PMC7877785.
± gives the uncertainty stated by the source.

Experiment: self-splicing fitness, log relative to wild type (ln ratio); higher = more splicing; Tetrahymena group I intron in knt gene, E. coli kanamycin selection, DiMSum; sequences stand for … in CUCUCU…GGAGGGAAAAGUUAUCAGGCAUGCACCUGGUAGCUAGUCUUUAAACCAAUAGAUUGCAUCGGUUUAAAAGGCAAGACCGUCAAAUUGCGGGAAAGGGGUCAACAGCCGUUCAGUACCAAGUCUCAGGGGAAACUUUGAGAUGGCCUUGCAAAGGGUAUGGUAAUAAGCUGACGGACAUGGUCCUAACCACGCAGCCAAGUCCUAAGUCAACAGAUCUUCUGUUGAUAUGGAUGCAGUUCACAGACUAAAUGUCGGUCGGGGAAGAUGUAUUCUUCUCAUAAGAUAUAGUCGGACCUCUCCUUAAUGGGAGCUAGCGGAUGAAGUGAUGCAACACUGGAGCCGCUGGGAACUAAUUUGUAUGCGAAAGUAUAUUGAUUAGUUUUGGAGUACUCGUGGUCG
In short: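 Colonies from six replicate transformations of E. coli BL21(DE3) were pooled and amplicon-sequenced on an Illumina HiSeq 2500. The library placed an intron with all eight P1ex-region nucleotides randomised inside the knt kanamycin-resistance gene on pET-22b(+), and cells grew overnight at 37°C or 30°C on LB agar with or without 25 μg/mL kanamycin (plus 100 μg/mL carbenicillin, 50 μM IPTG, 0.2% rhamnose). Fitness is the DiMSum error-weighted combination of wild-type-normalised replicate fold changes, kanamycin versus none.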

Sequence | self-splicing fitness (ln) (30 °C) | self-splicing fitness (ln) (37 °C)
UGGCAGCAAUAUUACGUUGA | -1.43 ± 0.13 | -0.707 ± 0.14
UGGGAGCAAUAUUACGAAGA | -2.99 ± 0.47 | -2.68 ± 0.33
UGGGAGCAAUAUUACGACAU | -3.84 ± 0.039 | -2.9 ± 0.05
UGGGAGCAAUAUUACGAGAG | -3.13 ± 0.32 | -2.85 ± 0.36
UGGGAGCAAUAUUACGAUGG | -2.64 ± 0.18 | -2.77 ± 0.48
UGGGAGCAAUAUUACGAUUU | -3.39 ± 0.3 | 
UGGGAGCAAUAUUACGCAAA |  | -2.43 ± 0.45
UGGGAGCAAUAUUACGCGUG | -2.51 ± 0.12 | -1.67 ± 0.12
UGGGAGCAAUAUUACGCUAA | -2.74 ± 0.29 | -1.93 ± 0.31
UGGGAGCAAUAUUACGCUGG | -1.91 ± 0.29 | -1.55 ± 0.35
UGGGAGCAAUAUUACGGACA | -1.7 ± 0.14 | -0.535 ± 0.13
UGGGAGCAAUAUUACGGAUU | -4.21 ± 0.31 | -3.06 ± 0.26
UGGGAGCAAUAUUACGGCAC |  | -0.43 ± 0.35
UGGGAGCAAUAUUACGGCCG |  | -1.37 ± 0.28
UGGGAGCAAUAUUACGGCGA | -1.73 ± 0.36 | -1.23 ± 0.28
UGGGAGCAAUAUUACGUGGU | -2.97 ± 0.35 | -1.56 ± 0.26
UGGGAGCAAUAUUACGUUGU | -3.01 ± 0.23 | -2.2 ± 0.34
UGGUAGCAAUAUUACGAAAA | -2.14 ± 0.19 | -0.612 ± 0.17
UGGUAGCAAUAUUACGAACC | -2.54 ± 0.29 | -1.93 ± 0.28
UGGUAGCAAUAUUACGAAGA | -1.45 ± 0.4 | -2.3 ± 0.49
UGGUAGCAAUAUUACGAAUA | -0.911 ± 0.17 | -1.17 ± 0.16
UGGUAGCAAUAUUACGAAUC | -2.14 ± 0.32 | 
UGGUAGCAAUAUUACGACCG | -1.22 ± 0.22 | -0.981 ± 0.27
UGGUAGCAAUAUUACGAGGG |  | -3.44 ± 0.33
UGGUAGCAAUAUUACGAUCU | -0.554 ± 0.13 | 0.576 ± 0.18

Sequence | self-splicing fitness (ln) (30 °C) | self-splicing fitness (ln) (37 °C)
UGGUAGCAAUAUUACGAUUG | -0.422 ± 0.05 | 0.168 ± 0.073
UGGUAGCAAUAUUACGCAAU | -2.59 ± 0.24 | -2.56 ± 0.33
UGGUAGCAAUAUUACGCAGG | -2.77 ± 0.3 | -2.82 ± 0.48
UGGUAGCAAUAUUACGCAUC |  | -3.68 ± 0.46
UGGUAGCAAUAUUACGCCGA | -1.43 ± 0.45 | -0.492 ± 0.32
UGGUAGCAAUAUUACGCCGU | -1.56 ± 0.27 | -1.42 ± 0.36
UGGUAGCAAUAUUACGCUGG | -2.08 ± 0.2 | -2.52 ± 0.2
UGGUAGCAAUAUUACGCUUU | -1.85 ± 0.12 | -1.46 ± 0.12
UGGUAGCAAUAUUACGGAAC |  | -0.88 ± 0.24
UGGUAGCAAUAUUACGGAGU | -2.76 ± 0.27 | 
UGGUAGCAAUAUUACGGCCG | -1.62 ± 0.29 | -0.342 ± 0.32
UGGUAGCAAUAUUACGGGAC |  | -2.89 ± 0.27
UGGUAGCAAUAUUACGGGUA | -2.28 ± 0.14 | -0.719 ± 0.12
UGGUAGCAAUAUUACGGUAC | -3.95 ± 0.4 | -1.43 ± 0.27
UGGUAGCAAUAUUACGUAAG | -1.53 ± 0.11 | -0.776 ± 0.16
UGGUAGCAAUAUUACGUACG | -1.02 ± 0.19 | -0.203 ± 0.23
UGGUAGCAAUAUUACGUAUU | -3.07 ± 0.14 | -1.84 ± 0.17
UGGUAGCAAUAUUACGUCCA | -0.714 ± 0.24 | -0.608 ± 0.3
UGGUAGCAAUAUUACGUGAG | -1.05 ± 0.092 | 0.0891 ± 0.11
UGGUAGCAAUAUUACGUGUG | -1.29 ± 0.071 | -0.469 ± 0.082
UGGUAGCAAUAUUACGUGUU | -3.24 ± 0.28 | -1.82 ± 0.29
UGGUAGCAAUAUUACGUUCG | -0.221 ± 0.12 | -0.719 ± 0.14
UGGUAGCAAUAUUACGUUGA | -0.502 ± 0.17 | -0.66 ± 0.15
UGGUAGCAAUAUUACGUUGU | -4.52 ± 0.36 | -2.86 ± 0.26
UGUAAGCAAUAUUACGAGGC | -1.16 ± 0.26 | -1.17 ± 0.41

Sequence | self-splicing fitness (ln) (30 °C) | self-splicing fitness (ln) (37 °C)
UGUAAGCAAUAUUACGAGGG | -3.68 ± 0.27 | -2.14 ± 0.3
UGUAAGCAAUAUUACGAGUC |  | -2.47 ± 0.33
UGUAAGCAAUAUUACGAUUA | -0.52 ± 0.076 | 0.447 ± 0.089
UGUAAGCAAUAUUACGCGAA | -2.68 ± 0.14 | -1.33 ± 0.17
UGUAAGCAAUAUUACGCGUA | -0.832 ± 0.14 | -0.754 ± 0.15
UGUAAGCAAUAUUACGCUAU | -3.7 ± 0.32 | -2.24 ± 0.29
UGUAAGCAAUAUUACGCUCG | -1.1 ± 0.11 | -0.752 ± 0.13
UGUAAGCAAUAUUACGGAAG | -1.91 ± 0.13 | -2.38 ± 0.21
UGUAAGCAAUAUUACGGGAU | -3.28 ± 0.32 | -2.46 ± 0.29
UGUAAGCAAUAUUACGGGGA |  | -1.19 ± 0.25
UGUAAGCAAUAUUACGGUAC | -1.81 ± 0.45 | 
UGUAAGCAAUAUUACGGUUA | -0.297 ± 0.091 | -0.0116 ± 0.098
UGUAAGCAAUAUUACGUGCG | -0.869 ± 0.075 | -0.337 ± 0.1
UGUAAGCAAUAUUACGUUCA | -0.719 ± 0.1 | -0.118 ± 0.14
UGUCAGCAAUAUUACGAAAG | -1.72 ± 0.14 | -1.21 ± 0.17
UGUCAGCAAUAUUACGAAAU | -2.21 ± 0.19 | -1.18 ± 0.19
UGUCAGCAAUAUUACGAAUU | -0.864 ± 0.13 | -1.04 ± 0.13
UGUCAGCAAUAUUACGACAC | -3.09 ± 0.47 | 
UGUCAGCAAUAUUACGACAG | -1.62 ± 0.16 | -0.615 ± 0.14
UGUCAGCAAUAUUACGACCC | -0.106 ± 0.22 | 0.358 ± 0.26
UGUCAGCAAUAUUACGACCU | -0.114 ± 0.17 | 0.566 ± 0.17
UGUCAGCAAUAUUACGACGC | -2.44 ± 0.22 | -1.61 ± 0.22
UGUCAGCAAUAUUACGACUG | -0.284 ± 0.1 | 0.525 ± 0.13
UGUCAGCAAUAUUACGAGAG | -3.21 ± 0.23 | -2.58 ± 0.2
UGUCAGCAAUAUUACGCAUU | -1.74 ± 0.09 | -0.133 ± 0.092

Sequence | self-splicing fitness (ln) (30 °C) | self-splicing fitness (ln) (37 °C)
UGUCAGCAAUAUUACGCCAG | -1.31 ± 0.1 | -0.7 ± 0.12
UGUCAGCAAUAUUACGCCAU | -1.79 ± 0.18 | -1.98 ± 0.16
UGUCAGCAAUAUUACGCGAG | -1.31 ± 0.096 | -0.991 ± 0.098
UGUCAGCAAUAUUACGCGAU | -3.41 ± 0.4 | -2.2 ± 0.34
UGUCAGCAAUAUUACGCGGA | -2.91 ± 0.2 | -1.52 ± 0.15
UGUCAGCAAUAUUACGCGUC | -2.7 ± 0.3 | -1.51 ± 0.29
UGUCAGCAAUAUUACGGAAU | -2.63 ± 0.15 | -0.922 ± 0.14
UGUCAGCAAUAUUACGGACA | -3.1 ± 0.29 | -1.75 ± 0.21
UGUCAGCAAUAUUACGGACG | -2.2 ± 0.15 | -1.34 ± 0.18
UGUCAGCAAUAUUACGGAUG | -2.07 ± 0.088 | -0.996 ± 0.1
UGUCAGCAAUAUUACGGCAG | -1.55 ± 0.11 | -0.219 ± 0.13
UGUCAGCAAUAUUACGGGAC | -4.31 ± 0.23 | -2.93 ± 0.34
UGUCAGCAAUAUUACGGGCC | -0.854 ± 0.12 | -0.00781 ± 0.16
UGUCAGCAAUAUUACGGUAC | -4.07 ± 0.46 | -1.38 ± 0.17
UGUCAGCAAUAUUACGGUGG | -2.14 ± 0.099 | -1.32 ± 0.097
UGUCAGCAAUAUUACGGUUG | -0.893 ± 0.049 | 0.317 ± 0.072
UGUCAGCAAUAUUACGUCGA | -0.404 ± 0.073 | -0.0273 ± 0.085
UGUCAGCAAUAUUACGUGAA | -0.122 ± 0.068 | 0.427 ± 0.083
UGUCAGCAAUAUUACGUGAG | -0.0851 ± 0.056 | 0.251 ± 0.072
UGUCAGCAAUAUUACGUUGU | -4.25 ± 0.27 | -2.3 ± 0.16
UGUGAGCAAUAUUACGAAUA | -3.54 ± 0.43 | -2.26 ± 0.36
UGUGAGCAAUAUUACGAAUC | -2.91 ± 0.38 | 
UGUGAGCAAUAUUACGACCG | -1.22 ± 0.19 | -0.38 ± 0.21
UGUGAGCAAUAUUACGACUU | -2.13 ± 0.23 | -2.33 ± 0.26
UGUGAGCAAUAUUACGAGUA | -2.16 ± 0.21 | -2.07 ± 0.29
